Laboratory results taken from IntAct's records for PubMed 15772280.

B1: BTB/POZ domain-containing protein At1g21780 (Arabidopsis thaliana (Mouse-ear cress)), Q9XHZ8 (parent)
chain: MGDTKVETISRLAQWRIENFGPCSFKKSDPFKVGIWNWHLSIERNRYLSVRLFPELSRVSKEQPPVAKFVLRVSNVGPNRRFYISPVYEKLLRTTDDCVWHVDSSFHGRFTIDVEFLDLKICPVNGGEASPVWPTDATMQSISTQTTLKCLSRMLEESILTDVIIHTADGTLSAHKAILSASSTVFKSMFHHDLMEKESSTIHIDDMSRESCMALLSYLYGNITQEEFWKHRLALLGAANKYDITDLKAACEESLMEDINSSNVLERLQEAWLYQLEKLKKGCLMYLFDFGKIYDVREEISSFFRQADRELMLEMFQEVLSVWKPV
partner: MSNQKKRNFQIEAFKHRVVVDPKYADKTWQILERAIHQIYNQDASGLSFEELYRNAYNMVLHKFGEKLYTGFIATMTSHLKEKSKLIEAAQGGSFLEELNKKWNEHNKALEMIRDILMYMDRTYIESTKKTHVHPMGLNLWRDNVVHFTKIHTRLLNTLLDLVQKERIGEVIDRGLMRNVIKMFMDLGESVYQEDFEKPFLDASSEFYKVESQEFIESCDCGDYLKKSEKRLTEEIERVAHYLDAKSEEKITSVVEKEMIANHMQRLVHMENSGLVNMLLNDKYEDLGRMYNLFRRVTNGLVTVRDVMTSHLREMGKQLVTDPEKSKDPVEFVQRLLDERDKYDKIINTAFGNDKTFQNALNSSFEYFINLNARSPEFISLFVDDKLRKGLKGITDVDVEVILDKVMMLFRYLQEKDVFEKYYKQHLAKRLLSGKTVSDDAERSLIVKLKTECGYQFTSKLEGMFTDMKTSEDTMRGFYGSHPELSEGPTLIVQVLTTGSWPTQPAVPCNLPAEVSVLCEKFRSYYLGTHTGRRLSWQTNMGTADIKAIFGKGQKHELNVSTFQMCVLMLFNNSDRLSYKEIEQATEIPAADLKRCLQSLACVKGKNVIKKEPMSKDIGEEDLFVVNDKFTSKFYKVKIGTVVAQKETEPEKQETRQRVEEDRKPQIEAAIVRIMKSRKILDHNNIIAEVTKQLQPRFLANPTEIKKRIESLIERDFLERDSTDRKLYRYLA
B2: Cullin-3A (Arabidopsis thaliana (Mouse-ear cress)), Q9ZVH4 (parent)
chain: B1 partner
partner: B1 chain

Variants of: B1
Conditions: with cul3a_arath CUL3A, Q9ZVH4

effect of a mutation on the interaction | Variant
decreasing interaction | MGDTKVETISRLAQWRIENFGPCSFKKSDPFKVGIWNWHLSIERNRYLSVRLFPELSRVSKEQPPVAKFVLRVSNVGPNRRFYISPVYEKLLRTTDDCVWHVDSSFHGRFTIDVEFLDLKICPVNGGEASPVWPTDATMQSISTQTTLKCLSRMLEESILTDVIIHTADGTLSAHKAILSASSTVFKSMFHHDLMEKESSTIHIDDMSRESCMALLSYLYGNITQEEFWKHRLALLGAANKADITDLKAACEESLMEDINSSNVLERLQEAWLYQLEKLKKGCLMYLFDFGKIYDVREEISSFFRQADRELMLEMFQEVLSVWKPV [Y242A]
decreasing interaction | MGDTKVETISRLAQWRIENFGPCSFKKSDPFKVGIWNWHLSIERNRYLSVRLFPELSRVSKEQPPVAKFVLRVSNVGPNRRFYISPVYEKLLRTTDDCVWHVDSSFHGRFTIDVEFLDLKICPVNGGEASPVWPTDATMQSISTQTTLKCLSRMLEESILTDVIIHTADGTLSAHKAILSASSTVFKSMFHHDLMEKESSTIHRDDMSRESCMALLSYLYGNITQEEFWKHRLALLGAANKYDITDLKAACEESLMEDINSSNVLERLQEAWLYQLEKLKKGCLMYLFDFGKIYDVREEISSFFRQADRELMLEMFQEVLSVWKPV [I204R]

Variants of: B2
Conditions: with y1178, Q9XHZ8

effect of a mutation on the interaction | Variant
decreasing interaction | F49A
decreasing interaction | S48A
